What was measured:
[1] = system: AncSZ; test: phosphorylation enrichment, bacterial display (enrichment ratio); higher = better substrate or ligand; peptides without Tyr show the background
[2] = target: EPHB1 (UniProt P54762); test: as above
[3] = target: EPHB2 (UniProt P29323); test: as above
[4] = target: FGFR1 (UniProt P11362); test: as above
[5] = target: FGFR3 (UniProt P22607); test: as above
[6] = system: Fer (mouse); test: as above
[7] = target: Fes (UniProt P07332); test: as above
[8] = target: Fyn (UniProt P06241); test: as above
[9] = target: Hck (UniProt P08631); test: as above
[10] = target: Jak2 (UniProt O60674); test: as above
[11] = target: MERTK (UniProt Q12866); test: as above
[12] = system: c-Abl (mouse); test: as above
[13] = system: c-Src; test: as above
[14] = target: Grb2 SH2 (UniProt P62993); test: SH2 binding enrichment of the phosphorylated peptide, bacterial display (enrichment ratio); higher = better substrate or ligand; peptides without Tyr show the background
[15] = target: SHP2-C SH2; test: as above
[16] = target: c-Src SH2; test: as above
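For SH2 binding enrichment of the phosphorylated peptide, bacterial display in this document: peptide library displayed on the E. coli surface as eCPX fusions, selected cells deep-sequenced, score is each peptide's frequency after selection divided by its frequency in the input.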
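For phosphorylation enrichment, bacterial display in this document: 11-residue human phosphosite peptides and single-mutation variants displayed on the E. coli surface, counted by deep sequencing, each peptide's frequency after selection divided by its frequency in the unselected input library; frequency after pTyr selection over input frequency; kinase dosed for 20-30% of maximal phosphorylation in three min.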

Sequence of Fyn (P06241 whole entry, looked up): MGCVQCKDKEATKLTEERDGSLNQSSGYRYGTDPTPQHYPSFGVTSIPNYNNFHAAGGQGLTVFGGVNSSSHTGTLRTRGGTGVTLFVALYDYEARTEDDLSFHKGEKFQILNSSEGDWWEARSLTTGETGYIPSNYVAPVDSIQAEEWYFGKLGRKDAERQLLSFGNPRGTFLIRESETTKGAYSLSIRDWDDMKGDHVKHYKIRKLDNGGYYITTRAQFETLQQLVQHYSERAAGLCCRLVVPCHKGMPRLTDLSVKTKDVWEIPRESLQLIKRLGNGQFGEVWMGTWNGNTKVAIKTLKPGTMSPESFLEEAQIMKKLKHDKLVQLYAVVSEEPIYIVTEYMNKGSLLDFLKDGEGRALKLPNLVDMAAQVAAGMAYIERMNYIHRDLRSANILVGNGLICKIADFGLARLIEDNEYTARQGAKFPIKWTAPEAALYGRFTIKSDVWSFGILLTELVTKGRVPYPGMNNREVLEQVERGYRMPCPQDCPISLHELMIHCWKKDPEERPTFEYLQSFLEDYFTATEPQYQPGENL
Sequence of EPHB2 (P29323 whole entry, looked up): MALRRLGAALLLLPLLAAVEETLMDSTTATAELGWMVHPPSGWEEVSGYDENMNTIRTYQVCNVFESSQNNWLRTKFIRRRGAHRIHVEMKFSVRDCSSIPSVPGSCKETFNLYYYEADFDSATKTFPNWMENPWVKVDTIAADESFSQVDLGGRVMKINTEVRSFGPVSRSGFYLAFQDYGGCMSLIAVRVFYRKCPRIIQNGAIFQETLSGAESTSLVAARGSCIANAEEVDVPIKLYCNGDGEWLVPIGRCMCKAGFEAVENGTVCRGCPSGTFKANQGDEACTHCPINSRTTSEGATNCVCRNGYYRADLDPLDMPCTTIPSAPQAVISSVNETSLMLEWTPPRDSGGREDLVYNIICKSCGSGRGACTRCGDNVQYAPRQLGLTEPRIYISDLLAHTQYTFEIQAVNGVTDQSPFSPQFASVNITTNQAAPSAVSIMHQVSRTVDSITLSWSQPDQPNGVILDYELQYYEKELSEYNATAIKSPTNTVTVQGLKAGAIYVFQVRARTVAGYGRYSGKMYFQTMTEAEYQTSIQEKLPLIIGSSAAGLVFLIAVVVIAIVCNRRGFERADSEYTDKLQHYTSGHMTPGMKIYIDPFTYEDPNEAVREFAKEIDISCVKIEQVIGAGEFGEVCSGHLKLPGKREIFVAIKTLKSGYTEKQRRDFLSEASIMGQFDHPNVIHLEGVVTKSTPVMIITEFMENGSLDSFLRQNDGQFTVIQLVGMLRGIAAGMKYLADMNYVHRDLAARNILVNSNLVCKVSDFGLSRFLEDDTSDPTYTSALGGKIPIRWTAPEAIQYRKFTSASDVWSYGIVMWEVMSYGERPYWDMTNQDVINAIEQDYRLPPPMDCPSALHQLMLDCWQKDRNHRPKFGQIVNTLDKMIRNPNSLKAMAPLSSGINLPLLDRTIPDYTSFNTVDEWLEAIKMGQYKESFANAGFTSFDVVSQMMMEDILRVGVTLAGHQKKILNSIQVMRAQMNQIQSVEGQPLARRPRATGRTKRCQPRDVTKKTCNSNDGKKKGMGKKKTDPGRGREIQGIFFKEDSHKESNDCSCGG
Sequence of MERTK (Q12866 whole entry, looked up): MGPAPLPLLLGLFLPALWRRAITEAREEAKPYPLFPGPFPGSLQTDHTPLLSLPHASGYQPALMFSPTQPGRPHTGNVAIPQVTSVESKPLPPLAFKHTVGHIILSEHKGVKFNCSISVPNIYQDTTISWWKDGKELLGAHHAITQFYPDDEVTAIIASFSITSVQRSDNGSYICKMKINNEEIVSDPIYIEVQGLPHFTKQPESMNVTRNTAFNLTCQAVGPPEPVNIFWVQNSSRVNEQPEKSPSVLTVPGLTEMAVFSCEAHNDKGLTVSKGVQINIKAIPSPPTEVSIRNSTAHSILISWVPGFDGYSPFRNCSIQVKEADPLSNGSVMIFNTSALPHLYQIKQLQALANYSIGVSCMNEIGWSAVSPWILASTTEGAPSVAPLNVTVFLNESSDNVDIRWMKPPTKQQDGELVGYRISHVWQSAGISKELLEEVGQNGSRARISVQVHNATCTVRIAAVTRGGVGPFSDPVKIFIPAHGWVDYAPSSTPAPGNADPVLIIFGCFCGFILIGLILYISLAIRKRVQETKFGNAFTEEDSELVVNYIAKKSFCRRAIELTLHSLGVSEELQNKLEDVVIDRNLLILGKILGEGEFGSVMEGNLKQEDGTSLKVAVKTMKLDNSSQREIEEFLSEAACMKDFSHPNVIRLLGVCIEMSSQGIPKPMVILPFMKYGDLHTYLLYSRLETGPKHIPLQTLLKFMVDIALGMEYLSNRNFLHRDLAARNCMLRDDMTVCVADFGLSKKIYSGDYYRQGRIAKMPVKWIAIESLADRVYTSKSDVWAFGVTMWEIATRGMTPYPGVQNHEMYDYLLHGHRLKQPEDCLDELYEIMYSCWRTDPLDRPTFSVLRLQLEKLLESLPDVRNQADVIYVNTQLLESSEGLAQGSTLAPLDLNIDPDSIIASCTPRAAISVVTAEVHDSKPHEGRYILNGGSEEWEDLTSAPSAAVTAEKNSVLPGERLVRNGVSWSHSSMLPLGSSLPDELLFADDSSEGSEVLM
Sequence of Jak2 (O60674 whole entry, looked up): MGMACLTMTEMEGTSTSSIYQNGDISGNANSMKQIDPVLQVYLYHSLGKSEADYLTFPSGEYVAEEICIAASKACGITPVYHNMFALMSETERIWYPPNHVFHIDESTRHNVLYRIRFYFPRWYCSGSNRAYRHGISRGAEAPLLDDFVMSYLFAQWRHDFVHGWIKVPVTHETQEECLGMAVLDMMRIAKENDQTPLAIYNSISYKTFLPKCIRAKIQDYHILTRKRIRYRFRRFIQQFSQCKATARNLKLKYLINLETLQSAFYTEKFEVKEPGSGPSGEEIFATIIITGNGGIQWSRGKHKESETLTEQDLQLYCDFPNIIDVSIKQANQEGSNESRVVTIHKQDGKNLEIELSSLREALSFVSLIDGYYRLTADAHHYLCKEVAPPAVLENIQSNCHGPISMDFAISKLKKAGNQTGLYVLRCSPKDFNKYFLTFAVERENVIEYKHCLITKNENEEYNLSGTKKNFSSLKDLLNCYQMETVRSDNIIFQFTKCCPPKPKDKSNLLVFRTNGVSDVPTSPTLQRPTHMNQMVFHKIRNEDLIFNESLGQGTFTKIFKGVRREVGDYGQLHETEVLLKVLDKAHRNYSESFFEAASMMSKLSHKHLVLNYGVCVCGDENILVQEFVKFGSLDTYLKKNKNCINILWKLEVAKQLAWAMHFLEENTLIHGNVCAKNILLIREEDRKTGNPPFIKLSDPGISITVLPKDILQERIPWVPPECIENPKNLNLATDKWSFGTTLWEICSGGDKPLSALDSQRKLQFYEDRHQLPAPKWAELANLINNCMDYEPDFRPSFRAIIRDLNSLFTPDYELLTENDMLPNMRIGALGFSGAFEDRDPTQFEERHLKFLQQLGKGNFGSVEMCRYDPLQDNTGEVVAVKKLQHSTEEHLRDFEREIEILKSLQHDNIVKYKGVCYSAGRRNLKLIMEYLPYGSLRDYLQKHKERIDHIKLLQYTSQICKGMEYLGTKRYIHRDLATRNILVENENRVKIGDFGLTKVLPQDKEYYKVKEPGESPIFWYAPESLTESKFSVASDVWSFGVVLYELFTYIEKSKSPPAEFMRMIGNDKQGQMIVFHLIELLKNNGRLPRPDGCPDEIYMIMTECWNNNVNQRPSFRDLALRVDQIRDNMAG
Sequence of EPHB1 (P54762 whole entry, looked up): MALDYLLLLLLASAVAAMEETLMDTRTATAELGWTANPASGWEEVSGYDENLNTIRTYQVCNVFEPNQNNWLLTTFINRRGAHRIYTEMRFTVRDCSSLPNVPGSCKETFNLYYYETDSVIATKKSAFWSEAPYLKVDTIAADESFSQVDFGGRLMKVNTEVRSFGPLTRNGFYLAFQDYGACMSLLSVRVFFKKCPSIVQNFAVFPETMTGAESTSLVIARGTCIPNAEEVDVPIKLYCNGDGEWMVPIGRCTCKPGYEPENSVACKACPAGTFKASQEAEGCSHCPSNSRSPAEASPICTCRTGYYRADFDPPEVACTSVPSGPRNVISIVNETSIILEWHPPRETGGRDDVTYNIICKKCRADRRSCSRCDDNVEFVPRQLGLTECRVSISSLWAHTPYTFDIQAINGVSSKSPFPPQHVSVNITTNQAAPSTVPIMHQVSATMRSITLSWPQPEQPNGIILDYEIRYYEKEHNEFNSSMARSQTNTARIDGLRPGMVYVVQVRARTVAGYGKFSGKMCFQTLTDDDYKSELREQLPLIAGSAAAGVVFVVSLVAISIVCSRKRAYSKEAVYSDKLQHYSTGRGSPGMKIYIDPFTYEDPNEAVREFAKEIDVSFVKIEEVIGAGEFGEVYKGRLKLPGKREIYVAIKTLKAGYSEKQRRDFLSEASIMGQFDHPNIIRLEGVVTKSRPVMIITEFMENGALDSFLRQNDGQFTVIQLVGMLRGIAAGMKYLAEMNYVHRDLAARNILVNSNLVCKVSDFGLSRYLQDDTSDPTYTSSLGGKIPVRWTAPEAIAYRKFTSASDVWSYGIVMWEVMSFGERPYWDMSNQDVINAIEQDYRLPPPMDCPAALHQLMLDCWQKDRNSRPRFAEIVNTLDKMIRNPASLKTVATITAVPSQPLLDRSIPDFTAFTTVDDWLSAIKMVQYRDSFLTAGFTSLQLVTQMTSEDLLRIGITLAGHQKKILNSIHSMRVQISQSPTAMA

SH2 binding enrichment [14]	SH2 binding enrichment [15]	SH2 binding enrichment [16]	Sequence	phosphorylation enrichment [1]	phosphorylation enrichment [2]	phosphorylation enrichment [3]	phosphorylation enrichment [4]	phosphorylation enrichment [5]	phosphorylation enrichment [6]	phosphorylation enrichment [7]	phosphorylation enrichment [8]	phosphorylation enrichment [9]	phosphorylation enrichment [10]	phosphorylation enrichment [11]	phosphorylation enrichment [12]	phosphorylation enrichment [13]
0.53	0.793	0.458	HEEDNYIELIP [NWD2_Y566]	3.19	2.98	1.91	6.02	5.2	1.27	2.29	0.905	1.02	2.21	1.33	1.89	1.3
0.851	0.731	0.397	HFEDGYPGGSD [CTNND1_Y221_YF]	1.15	0.656	0.675	0.668	0.806	0.5	1.45	0.74	0.756	0.955	0.598	0.485	0.514
0.694	0.651	0.828	HGQVNYEEFVQ [CALM2_Y139_D134H]	1.89	6.37	5.8	0.795	1.02	1.26	1.92	1.28	1.37	1.24	0.92	0.911	0.803
0.936	0.795	6.43	HGVSSYDTVIS [LDLR_Y465]	1.19	0.515	0.865	0.801	0.706	0.638	1.15	0.818	0.846	0.911	0.811	0.779	0.441
1.11	3.88	2.54	HHLSTYTKMLF [CHST8_Y251_R247H]	1.39	0.956	0.902	0.714	1.05	0.504	1.32	0.989	0.814	0.743	0.541	0.792	0.71
0.85	0.464	0.536	HLLRIYFDITD [MMP27_Y307_W304L_YF]	1.99	1.53	0.891	0.874	1.68	0.846	2.46	0.491	0.733	2.05	0.568	1.87	0.791
0.895	11.3	0.987	HLPAGYIIPLQ [GAA_Y822_R819P]	0.638	0.383	0.28	0.443	0.444	0.297	0.764	0.388	0.491	0.608	0.542	0.363	0.492
0.797	0.48	0.423	HLQDEYDFKCK [STAT1_Y170_D165H]	1.33	0.621	0.585	0.581	0.924	0.471	1.59	0.631	0.589	1.5	0.884	0.776	0.871
0.722	0.632	0.428	HNLNFYKKTTN [FGFR3_Y648_D646N_YF]	1.42	0.761	0.553	0.735	2.99	0.806	0.92	0.975	0.572	0.832	0.605	0.642	0.565
1.45	1.55	1.08	HQKKPYCHTHN [NRAP_Y53_A56T]	1.88	1.7	0.854	1.27	3.53	1.34	2.33	1.04	1.13	3.44	0.627	1.21	0.794
1.7	1.87	1.98	HRLSTYTKMLF [CHST8_Y251]	1.18	0.723	0.655	0.428	0.74	0.689	1.52	0.443	0.744	1.22	0.707	1.02	0.585
0.674	0.651	0.668	HRNNNYEPNLF [BRCA2_Y57_K53R]	0.684	1.07	0.858	0.54	0.662	0.552	0.75	0.583	0.465	1.06	0.617	0.509	0.419
0.698	0.733	0.314	HSGLAYTMERS [GLUD1_Y512]	0.933	0.897	0.495	0.403	0.543	0.561	1.26	0.685	0.383	0.985	0.521	0.56	0.763
1.04	1.12	9.16	HSYNSYTYPRL [PAK5_Y316]	0.776	0.472	0.508	0.658	0.532	0.554	0.682	0.449	0.485	0.716	1.78	0.553	0.652
0.907	0.647	0.532	HTKKNYGNSSV [HDX_Y197_A193T]	0.443	0.181	0.403	0.252	0.515	0.393	0.656	0.337	0.462	0.433	0.442	0.331	0.472
0.762	0.938	0.47	HVLEEYKPKQG [SAXO2_Y37_P34L]	0.5	0.487	0.683	0.656	1.39	0.552	0.834	1.19	0.646	1.36	0.57	0.698	0.424
